# Patent US20020082235A1
# Biological target: Hoxc-8 (in the transfected C3H10T1/2 and 2T3 cells)
# Experiment: cell-based or functional assay
row,Substance,"osteopontin promoter activity (OPN-266 luciferase reporter, C3H10T1/2 cells)"
1,Smad1-L (aa 145-276) fused with a nuclear localization signal,3 to 5 fold
2,Smad1-M (101-191) fused with a nuclear localization signal,3 to 5 fold
3,Smad1-NL (amino acids 3-276) fused with a nuclear localization signal,3 to 5 fold
